Sequences and labels used below:
B1: P9 60mer (other)
chain: KQENWYSLKKNSRSLGSGNGTGGSMQIYEGKLTAEGLRFGIVASRANHALVDRLVEGAIDAIVRHGGREEDITLVRVCGSWEIPVAAGELARKENISAVIAIGVLCRGATPSFDYIASEVSKGLADLSLELRKPITFGVITADTLEQAIEAAGTCHGNKGWEAALCAIEMANLFKSLRGGSNGTGGSGGSNGT
modifications: glycosylated (engineered glycosylation sites)
notes: Plasmodium falciparum circumsporozoite protein (PfCSP), strain 3D7; linker between the peptide and lumazine synthase; C-terminal extension with two added glycosylation sites; Self-assembling lumazine synthase nanoparticle; cloned into pHLsec between the leader and a double stop codon (AgeI/KpnI); source: FreeStyle 293 F cells, transfected, purified (snowdrop lectin agarose, Superose 6 SEC); …
B2: J3 60mer (other)
chain: KLKQPADGNPDPNANPNVDPNANPNVDPNANPNVDPGSGNGTGGSMQIYEGKLTAEGLRFGIVASRANHALVDRLVEGAIDAIVRHGGREEDITLVRVCGSWEIPVAAGELARKENISAVIAIGVLCRGATPSFDYIASEVSKGLADLSLELRKPITFGVITADTLEQAIEAAGTCHGNKGWEAALCAIEMANLFKSLRGGSNGTGGSGGSNGT
modifications: glycosylated (engineered glycosylation sites)
notes: Plasmodium falciparum circumsporozoite protein (PfCSP), strain 3D7; J3, full-length junctional peptide beginning with Region I; linker between the peptide and lumazine synthase; C-terminal extension with two added glycosylation sites; Self-assembling lumazine synthase nanoparticle; cloned into pHLsec between the leader and a double stop codon (AgeI/KpnI); also called peptide J3-60mer; source: …
B3: J3 24mer (other)
chain: KLKQPADGNPDPNANPNVDPNANPNVDPNANPNVDPLSKDIIKLLNEQVNKEMQSSNLYMSMSSWCYTHSLDGAGLFLFDHAAEEYEHAKKLIIFLNENNVPVNLTSISAPEHNFTGLTQIFQKAYEHEQNISESINNITDHAIKSKDHATFNFLQWYVAEQHEEEVLFKDILDKIELIGNENHGLYLADQYVKGIAKSRKS
modifications: glycosylated (engineered glycosylation sites)
notes: Plasmodium falciparum circumsporozoite protein (PfCSP), strain 3D7; J3, full-length junctional peptide beginning with Region I; Self-assembling ferritin nanoparticle; cloned into pHLsec between the leader and a double stop codon (AgeI/KpnI); also called peptide J3-24mer; source: FreeStyle 293 F cells, transfected, purified (snowdrop lectin agarose, Superose 6 SEC); copies: 24
B4: P15 24mer (other)
chain: DNEKLRKPKHKKLKQLSKDIIKLLNEQVNKEMQSSNLYMSMSSWCYTHSLDGAGLFLFDHAAEEYEHAKKLIIFLNENNVPVNLTSISAPEHNFTGLTQIFQKAYEHEQNISESINNITDHAIKSKDHATFNFLQWYVAEQHEEEVLFKDILDKIELIGNENHGLYLADQYVKGIAKSRKS
modifications: glycosylated (engineered glycosylation sites)
notes: Plasmodium falciparum circumsporozoite protein (PfCSP), strain 3D7; Self-assembling ferritin nanoparticle; cloned into pHLsec between the leader and a double stop codon (AgeI/KpnI); source: FreeStyle 293 F cells, transfected, purified (snowdrop lectin agarose, Superose 6 SEC); copies: 24
B5: J3R3 60mer (other)
chain: KLKQPADGNPDPNANPNVDPNANPNVDPNANPNVDPNANPNANPNANPGSGNGTGGSMQIYEGKLTAEGLRFGIVASRANHALVDRLVEGAIDAIVRHGGREEDITLVRVCGSWEIPVAAGELARKENISAVIAIGVLCRGATPSFDYIASEVSKGLADLSLELRKPITFGVITADTLEQAIEAAGTCHGNKGWEAALCAIEMANLFKSLRGGSNGTGGSGGSNGT
modifications: glycosylated (engineered glycosylation sites)
notes: Plasmodium falciparum circumsporozoite protein (PfCSP), strain 3D7; J3R3, junctional peptide with three added NANP repeats; linker between the peptide and lumazine synthase; C-terminal extension with two added glycosylation sites; Self-assembling lumazine synthase nanoparticle; cloned into pHLsec between the leader and a double stop codon (AgeI/KpnI); source: FreeStyle 293 F cells, transfected, …
B6: C-term MD1 24mer (other)
chain: EPSDNHTKSYYAKIQNSLSTEWSPCSVTCGNGIQVRIKPGSANKPKANLTYANDIEKKICKMEKCGGSLSKDIIKLLNEQVNKEMQSSNLYMSMSSWCYTHSLDGAGLFLFDHAAEEYEHAKKLIIFLNENNVPVNLTSISAPEHNFTGLTQIFQKAYEHEQNISESINNITDHAIKSKDHATFNFLQWYVAEQHEEEVLFKDILDKIELIGNENHGLYLADQYVKGIAKSRKS
modifications: glycosylated (engineered glycosylation sites)
notes: Plasmodium falciparum circumsporozoite protein (PfCSP), strain 3D7; C-terminal αTSR domain, Rosetta-designed variant MD1; linker; Self-assembling ferritin nanoparticle; cloned into pHLsec between the leader and a double stop codon (AgeI/KpnI); also called modified-1 C-term 24mer; MD1 αTSR 24mer; source: FreeStyle 293 F cells, transfected, purified (snowdrop lectin agarose, Superose 6 SEC); …
B7: C-term WT 24mer (other)
chain: EPSDKHIKEYLNKIQNSLSTEWSPCSVTCGNGIQVRIKPGSANKPKDELDYANDIEKKICKMEKCGGSLSKDIIKLLNEQVNKEMQSSNLYMSMSSWCYTHSLDGAGLFLFDHAAEEYEHAKKLIIFLNENNVPVNLTSISAPEHNFTGLTQIFQKAYEHEQNISESINNITDHAIKSKDHATFNFLQWYVAEQHEEEVLFKDILDKIELIGNENHGLYLADQYVKGIAKSRKS
modifications: glycosylated (engineered glycosylation sites)
notes: Plasmodium falciparum circumsporozoite protein (PfCSP), strain 3D7; wild-type C-terminal αTSR domain, without the C-terminal linker; linker; Self-assembling ferritin nanoparticle; cloned into pHLsec between the leader and a double stop codon (AgeI/KpnI); also called wild-type C-terminal domain on 24mer; WT αTSR 24mer; source: FreeStyle 293 F cells, transfected, purified (snowdrop lectin agarose, …)
B8: P8 24mer (other)
chain: NYYGKQENWYSLKKNLSKDIIKLLNEQVNKEMQSSNLYMSMSSWCYTHSLDGAGLFLFDHAAEEYEHAKKLIIFLNENNVPVNLTSISAPEHNFTGLTQIFQKAYEHEQNISESINNITDHAIKSKDHATFNFLQWYVAEQHEEEVLFKDILDKIELIGNENHGLYLADQYVKGIAKSRKS
modifications: glycosylated (engineered glycosylation sites)
notes: as for B4
B9: P1 24mer (other)
chain: YGSSSNTRVLNELNYLSKDIIKLLNEQVNKEMQSSNLYMSMSSWCYTHSLDGAGLFLFDHAAEEYEHAKKLIIFLNENNVPVNLTSISAPEHNFTGLTQIFQKAYEHEQNISESINNITDHAIKSKDHATFNFLQWYVAEQHEEEVLFKDILDKIELIGNENHGLYLADQYVKGIAKSRKS
modifications: glycosylated (engineered glycosylation sites)
notes: as for B4
B10: J3R3 24mer (other)
chain: KLKQPADGNPDPNANPNVDPNANPNVDPNANPNVDPNANPNANPNANPLSKDIIKLLNEQVNKEMQSSNLYMSMSSWCYTHSLDGAGLFLFDHAAEEYEHAKKLIIFLNENNVPVNLTSISAPEHNFTGLTQIFQKAYEHEQNISESINNITDHAIKSKDHATFNFLQWYVAEQHEEEVLFKDILDKIELIGNENHGLYLADQYVKGIAKSRKS
modifications: glycosylated (engineered glycosylation sites)
notes: Plasmodium falciparum circumsporozoite protein (PfCSP), strain 3D7; J3R3, junctional peptide with three added NANP repeats; Self-assembling ferritin nanoparticle; cloned into pHLsec between the leader and a double stop codon (AgeI/KpnI); source: FreeStyle 293 F cells, transfected, purified (snowdrop lectin agarose, Superose 6 SEC); copies: 24

The data set concerns the molecule itself. In words: SEC + SEC-MALS + other: negative stain electron microscopy; self-assembly of the protomer into the nanoparticle; Superose 6 10/300 at 0.5 ml/min with DAWN HELEOS II and Optilab T-rEX detectors, glycan mass corrected by protein-conjugate analysis; nsEM at 0.1 mg/ml in HBS, uranyl formate. On the technique in general: Size exclusion chromatography separates by hydrodynamic size, large species first.
B1: the binding result is given as “binds”.

For B2, the binding result is on record as “binds”.

For the protein B3, the binding result is recorded as “binds”.

As for B4, the binding result is on record as “binds”.

B5: the binding result is recorded as “binds”.

Regarding B6, the binding result is on record as “binds”.

Consider B7, for which the binding result is on record as “binds”.

For B8, the binding result was “binds”.

Regarding B9, the binding result is reported as “binds”.

On to B10, for which the binding result is on record as “binds”.

These data come from article PMC12627087, “mRNA delivery of circumsporozoite protein epitope-based malaria vaccines induces protection in a mouse model” (NPJ Vaccines, 2025).
